This note sets out measurements from patent publication US5688671A, “Mutant aspartokinase gene” (Ajinomoto Co., Inc., priority 1993, dated 1997).

This data set deals with AK. The data set can be described thus: AK enzyme activity and inhibition by lysine/threonine in cell-free extracts of AK-deficient Escherichia coli Gif106M1 transformants. In kind it is biochemical, Corynebacterium glutamicum. The following applies: E. coli Gif106M1 cell-free extracts. An excerpt:
Bacteriol. 112, 84-92 (1972), Theze, J. et al., J. […] It is known that most of genes of bacteria belonging to the genus Corynebacterium are expressed in Escherichia coli. In addition, the AK gene was ligated at a position downstream from lac promoter on pHSG399. Thus it was postulated that the gene could be expressed in Escherichia coli. […] Thus it was confirmed that AK from the bacteria belonging to the genus Corynebacterium was expressed and operated in cells of Escherichia coli. Subsequently, cell-free extracts were prepared from bacterial cells, and the enzyme activity of AK was measured. Upon measurement of the enzyme activity of AK, various concentrations of lysine and threonine were added to enzyme reaction solutions to investigate the degree of inhibition (FIG. 2). […] (Ki value: 0.4 mM→5.0 mM). […] Cell-free extracts were prepared, and enzymes were analyzed.

B1: Asp: mutant aspartokinase 279 Ala→Asp, plasmid p399AKAD (protein, UniProt P26512 1-421, looked up, variant A279D)
Aspartokinase: MALVVQKYGGSSLESAERIRNVAERIVATKKAGNDVVVVCSAMGDTTDELLELAAAVNPVPPAREMDMLLTAGERISNALVAMAIESLGAEAQSFTGSQAGVLTTERHGNARIVDVTPGRVREALDEGKICIVAGFQGVNKETRDVTTLGRGGSDTTAVALAAALNADVCEIYSDVDGVYTADPRIVPNAQKLEKLSFEEMLELAAVGSKILVLRSVEYARAFNVPLRVRSSYSNDPGTLIAGSMEDIPVEEAVLTGVATDKSEAKVTVLGISDKPGEDAKVFRALADAEINIDMVLQNVSSVEDGTTDITFTCPRSDGRRAMEILKKLQVQGNWTNVLYDDQVGKVSLVGAGMKSHPGVTAEFMEALRDVNVNIELISTSEIRISVLIREDDLDAAARALHEQFQLGGEDEAVVYAGTGR
Take B1: the “AK activity” value was “inactivated”. Also, under “Table 4”, the Specific activity is on record as 1.5 mU/mg protein.
